Data taken from PMC9734137 (2022).
Where two headings read alike, the source gives them in different places.

B1: aSA3 (VHH)
VHH: QVQLVESGGGLVQPGGSLRLSCAASGFTSDHYALAWFRQAPGKEREGVSCIDSDGNPFYADSVKGRFTGSRDNAKNTVYLQMNSLKLEDTAVYYCAAGLWYGRSLNSFDYDYWGQGTQVTVSS
B2: aSA3-Fc (Fc fusion)
chain: B1 VHH

Assays:
WT SARS2 RBD [1] = molecular target: T1, WT SARS2 RBD (SARS-CoV-2, UniProt P0DTC2 321-591); test: SPR
SARS1 RBD [2] = molecular target: SARS1 RBD (SARS-CoV-1); test: SPR
WT SARS2 RBD [3] = molecular target: T1, WT SARS2 RBD; test: SPR; remark: listed apart in the source
SARS1 RBD [4] = molecular target: SARS1 RBD (SARS-CoV-1); test: SPR; remark: listed apart in the source
WT SARS2 RBD [5] = molecular target: T1, WT SARS2 RBD; test: ELISA

Binder | koff (WT SARS2 RBD [1]) [s⁻¹] | koff (SARS1 RBD [2]) [s⁻¹] | koff (WT SARS2 RBD [3]) [s⁻¹] | koff (SARS1 RBD [4]) [s⁻¹] | EC50 (WT SARS2 RBD [5]) [nM]
B1 | 9.77e-05 | 0.000364 |  |  | 
B2 |  |  | 1.44e-05 | 8.26e-05 | 0.74
